In the test the target is IL-12 receptor of human T cells (human) (UniProt P42701). Kind of test: cell-based or functional assay.
Chain of IL-12 receptor of human T cells (human) (Q99665 24-862, chain 2 of 2, other chains not shown): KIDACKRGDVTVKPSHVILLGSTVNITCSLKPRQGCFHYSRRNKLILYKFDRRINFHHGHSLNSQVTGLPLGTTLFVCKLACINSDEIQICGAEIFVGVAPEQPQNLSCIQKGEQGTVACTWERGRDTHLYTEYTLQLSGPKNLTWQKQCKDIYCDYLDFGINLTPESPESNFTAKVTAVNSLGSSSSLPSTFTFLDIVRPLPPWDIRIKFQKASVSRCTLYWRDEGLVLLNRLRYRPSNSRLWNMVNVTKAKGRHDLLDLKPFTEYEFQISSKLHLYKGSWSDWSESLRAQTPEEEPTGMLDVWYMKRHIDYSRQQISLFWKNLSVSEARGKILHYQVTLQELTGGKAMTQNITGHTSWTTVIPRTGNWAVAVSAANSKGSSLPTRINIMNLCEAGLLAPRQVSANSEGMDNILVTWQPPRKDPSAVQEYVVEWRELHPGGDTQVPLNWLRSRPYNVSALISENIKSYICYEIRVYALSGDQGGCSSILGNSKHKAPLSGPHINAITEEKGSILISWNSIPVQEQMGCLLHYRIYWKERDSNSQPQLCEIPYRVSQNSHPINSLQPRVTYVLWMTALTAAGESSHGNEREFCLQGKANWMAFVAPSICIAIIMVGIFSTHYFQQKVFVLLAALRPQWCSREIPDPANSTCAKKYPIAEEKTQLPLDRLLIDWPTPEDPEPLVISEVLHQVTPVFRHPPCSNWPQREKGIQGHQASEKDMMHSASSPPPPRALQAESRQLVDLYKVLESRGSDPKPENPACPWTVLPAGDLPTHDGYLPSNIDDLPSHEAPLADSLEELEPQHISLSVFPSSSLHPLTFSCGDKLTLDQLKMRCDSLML

In the case of “recombinant human IL-12 (from UniProt P29459 23-219; P29460 23-328) (ligand)”, the p-STAT4 (Tyr693) AlphaLISA in activated human T cells, EC50 amounted to 0.195 ng/mL.

Values taken from patent publication US20230295327A1.
